The test has as its target T1, Biotin-HSA (human, UniProt P02768, biotinylated (sites and number not given)).
T1 construct: biotinylated, without the compound; not further described; also called biotinylated-HSA; biotinylated human albumin
Nature of the test: binding of biotinylated HSA without compound to transfected HEK293 cells, detected with avidin-alkaline phosphatase.

T1 sequence (P02768 25-609 limits assumed): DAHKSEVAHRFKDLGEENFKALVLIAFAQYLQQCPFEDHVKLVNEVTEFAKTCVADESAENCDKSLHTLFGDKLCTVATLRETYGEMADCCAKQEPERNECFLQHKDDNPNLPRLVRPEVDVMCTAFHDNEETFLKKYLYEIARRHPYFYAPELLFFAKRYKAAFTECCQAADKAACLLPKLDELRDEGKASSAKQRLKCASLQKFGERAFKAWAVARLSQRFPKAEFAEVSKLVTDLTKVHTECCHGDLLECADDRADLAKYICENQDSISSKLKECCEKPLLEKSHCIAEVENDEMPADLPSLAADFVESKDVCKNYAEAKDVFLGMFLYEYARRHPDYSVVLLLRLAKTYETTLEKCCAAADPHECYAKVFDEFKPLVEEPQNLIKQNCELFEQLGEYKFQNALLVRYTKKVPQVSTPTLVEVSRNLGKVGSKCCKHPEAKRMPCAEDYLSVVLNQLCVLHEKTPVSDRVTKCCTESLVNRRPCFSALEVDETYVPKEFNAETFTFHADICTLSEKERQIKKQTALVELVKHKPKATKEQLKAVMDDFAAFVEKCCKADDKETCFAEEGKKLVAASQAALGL

B1: R-PLXDC1 (full length human PLXDC1 with an epitope tag at the N-terminus, on transfected cells) (receptor, not shown: small tags and cut ends)
chain: LSPQPGAGHDEGPGSGWAAKGTVRGWNRRARESPGHVSEPDRTQLSQDLGGGTLAMDTLPDNRTRVVEDNHSYYVSRLYGPSEPHSRELWVDVAEANRSQVKIHTILSNTHRQASRVVLSFDFPFYGHPLRQITIATGGFIFMGDVIHRMLTATQYVAPLMANFNPGYSDNSTVVYFDNGTVFVVQWDHVYLQGWEDKGSFTFQAALHHDGRIVFAYKEIPMSVPEISSSQHPVKTGLSDAFMILNPSPDVPESRRRSIFEYHRIELDPSKVTSMSAVEFTPLPTCLQHRSCDACMSSDLTFNCSWCHVLQRCSSGFDRYRQEWMDYGCAQEAEGRMCEDFQDEDHDSASPDTSFSPYDGDLTTTSSSLFIDSLTTEDDTKLNPYAGGDGLQNNLSPKTKGTPVHLGTIVGIVLAVLLVAAIILAGIYINGHPTSNAALFFIERRPHHWPAMKFRSHPDHSTYAEVEPSGHEKEGFMEAEQC
notes: also called TEM7
For B1, the binding result is “no binding”.

Values taken from patent US20210147525A1 (University of California, published 2021).
